Holding throughout (assay): crystal structure
Series [1] addresses fiber protein derived from HAdV-35 (fiber of Ad35F) (human adenovirus 35 (HAdV-35)).
Series [2] addresses hexon (major capsid protein) of the HAdV-5 vector Ad35F (human adenovirus 5 (HAdV-5), UniProt P04133 1-952).
The series “crystal structure” deals with the molecule itself.

On to “fiber protein derived from HAdV-35 (fiber of Ad35F) (natural protein)”, for which the stoichiometry N (commonly a count of units in the complex or per binding partner) in series [1] was determined as 3.

B1: protein IX of the HAdV-5 vector Ad35F (natural protein)
chain: MSTNSFDGSIVSSYLTTRMPPWAGVRQNVMGSSIDGRPVLPANSTTLTYETVSGTPLETAASAAASAAAATARGIVTDFAFLSPLASSAASRSSARDDKLTALLAQLDSLTRELNVVSQQLLDLRQQVSALKASSPPNAV
For the molecule B1, in series [2], the binding result was “binds”.

B2: penton base (PB) of the HAdV-5 vector Ad35F (natural protein)
chain: MRRAAMYEEGPPPSYESVVSAAPVAAALGSPFDAPLDPPFVPPRYLRPTGGRNSIRYSELAPLFDTTRVYLVDNKSTDVASLNYQNDHSNFLTTVIQNNDYSPGEASTQTINLDDRSHWGGDLKTILHTNMPNVNEFMFTNKFKARVMVSRLPTKDNQVELKYEWVEFTLPEGNYSETMTIDLMNNAIVEHYLKVGRQNGVLESDIGVKFDTRNFRLGFDPVTGLVMPGVYTNEAFHPDIILLPGCGVDFTHSRLSNLLGIRKRQPFQEGFRITYDDLEGGNIPALLDVDAYQASLKDDTEQGGGGAGGSNSSGSGAEENSNAAAAAMQPVEDMNDHAIRGDTFATRAEEKRAEAEAAAEAAAPAAQPEVEKPQKKPVIKPLTEDSKKRSYNLISNDSTFTQYRSWYLAYNYGDPQTGIRSWTLLCTPDVTCGSEQVYWSLPDMMQDPVTFRSTRQISNFPVVGAELLPVHSKSFYNDQAVYSQLIRQFTSLTHVFNRFPENQILARPPAPTITTVSENVPALTDHGTLPLRNSIGGVQRVTITDARRRTCPYVYKALGIVSPRVLSSRTF
In the case of B2, the “stoichiometry N” value in “crystal structure” amounted to 5.

The values above are taken from PMC2929978 (Science (New York, N.Y.), 2010).
